From patent US20230212266A1 (FRED HUTCHINSON CANCER CENTER, published 2023)
Substitutions are numbered along the chain they refer to. Where two headings read alike, the source gives them in different places.

Key:
Test in all cases: BLI, mAb on anti-human Fc probe, antigen in solution
[1] = target: T1, SARS-CoV-2 receptor binding domain (RBD) (SARS-CoV-2, UniProt P0DTC2 319-591)
[2] = target: T1, SARS-CoV-2 receptor binding domain (RBD); remark: listed apart in the source
[3] = target: T1, SARS-CoV-2 receptor binding domain (RBD); remark: listed apart in the source
[4] = target: T1, SARS-CoV-2 receptor binding domain (RBD); remark: listed apart in the source
[5] = target: T1, SARS-CoV-2 receptor binding domain (RBD); remark: listed apart in the source
[6] = target: T1, SARS-CoV-2 receptor binding domain (RBD); remark: listed apart in the source
[7] = target: T1, SARS-CoV-2 receptor binding domain (RBD); remark: listed apart in the source
[8] = target: T1, SARS-CoV-2 receptor binding domain (RBD); remark: listed apart in the source
[9] = target: T1, SARS-CoV-2 receptor binding domain (RBD); remark: listed apart in the source
[10] = target: T1, SARS-CoV-2 receptor binding domain (RBD); remark: listed apart in the source

B1: CV33 (antibody, V domains shown)
VH: QVQLVQSGAEVKKPGASVKVSCKASGYTFTSYDISWVRQAPGQGLEWMGWISAYNGNTNYAQKLQGRVTMTTDTSTSTAYMELRSLRSDDTAVYYCARDSVAGIYYYYGMDVWGQGTTVTVSS
VL: QSVLTQPPSVSGAPGQRVTISCTGSSSNIGAGYDVHWYQQLPGTAPKLLIYGNSNRPSGVPDRFSGSKSGTSASLAITGLQAEDEADYYCQSYDSSLSGPVVFGGGTKLTVL
notes: expressed as IgG
Question: Does B1 bind [1]?
Answer: Result: no binding

B2: CV37 (antibody, V domains shown)
VH: QVQLVQSGAEVKKPGASVKVSCKASGYTFTSYGISWVRQAPGQGLEWMGWISAYNGNTNYAQKLQGRVTMTTDTSTSTAYMELRSLRSDDTAVYYCARARVAYDYIWGSYRYKAFDYWGQGTLVTVSS
VL: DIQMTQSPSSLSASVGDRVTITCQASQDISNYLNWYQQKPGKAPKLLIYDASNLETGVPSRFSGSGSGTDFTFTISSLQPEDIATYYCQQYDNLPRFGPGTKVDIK
notes: expressed as IgG
Question: Does B2 bind [2]?
Answer: Result: no binding

B3: CV25 (antibody, V domains shown)
VH: QVQLQESGPGLVKPSQTLSLTCTVSGGSISSGDYYWSWIRQPPGKGLEWIGYIYYSGSTYYNPSLKSRVTISVDTSKNQFSLKLSSVTAADTAVYYCARDHHYDFWSGYSSYYYYGMDVWGQGTTVTVSS
VL: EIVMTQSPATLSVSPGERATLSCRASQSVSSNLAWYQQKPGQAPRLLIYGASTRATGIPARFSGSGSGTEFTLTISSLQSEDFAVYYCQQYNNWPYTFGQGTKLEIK
Question: Does B3 bind [3]?
Answer: Result: no binding

B4: CV23 (antibody, V domains shown)
VH: QVQLVQSGAEVKKPGASVKVSCKASGYTFTSYAMHWVRQAPGQRLEWMGWINAGNGNTKYSQKFQGRVTITRDTSASTAYMELSSLRSEDTAVYYCARVWGYCSGGSCYVDAFDIWGQGTMVTVSS
VL: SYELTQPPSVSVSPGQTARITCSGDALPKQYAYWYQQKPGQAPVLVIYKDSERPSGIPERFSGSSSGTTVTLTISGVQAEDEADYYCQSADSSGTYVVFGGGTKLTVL
notes: expressed as IgG
Question: Does B4 bind [4]?
Answer: Result: no binding

B5: CV36 (antibody, V domains shown)
VH: QVQLVQSGAEVKKPGASVKVSCKASGYTFTGYYMHWVRQAPGQGLEWMGWINPNSGGTNYVQKFQGRVTMTRDTSISTAYMELNRLRSDDTAVYFCARDLTTTAGTDYYYGMDVWGQGTTVTVSS
VL: SYELTQPPSVSVSPGQTARITCSGDALPKQYAYWYQQKPGQAPVLVIYKDTERPSGIPERFSGSSSGTTVTLTISGVQAEDEADYYCQSADSSGTYMIFGTGTKVTVL
notes: expressed as IgG
Question: Does B5 bind [5]?
Answer: Result: no binding

B6: CV32 (antibody, V domains shown)
VH: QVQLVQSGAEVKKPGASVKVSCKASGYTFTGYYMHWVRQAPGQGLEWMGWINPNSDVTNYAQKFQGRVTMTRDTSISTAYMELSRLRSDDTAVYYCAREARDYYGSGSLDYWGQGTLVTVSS
VL: QSVLTQPPSVSAAPGQKVTISCSGSSSNIGNNYVSWYQQLPGTAPKLLIYDNNKRPSGIPDRFSGSKSGTSATLGITGLQTGDEADYYCGTWDSSLSAVVFGGGTKLTVL
notes: expressed as IgG
Question: Does B6 bind [6]?
Answer: Result: no binding

B7: CV39 (antibody, V domains shown)
VH: QVQLVESGGGVVQPGRSMRLSCAASGFNLSSYAMHWVRQASGKGLEWVSLISYDGSIKYYADSVKGRFTVSGDNSKNTLFLQMSSLRADDSALYYCVRGGVSGPNAFDIWGQGTTVTVSS
VL: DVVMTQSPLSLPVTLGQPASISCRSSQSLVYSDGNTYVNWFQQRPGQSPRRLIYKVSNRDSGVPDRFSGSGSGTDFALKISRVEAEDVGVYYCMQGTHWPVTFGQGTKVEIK
notes: expressed as IgG
Question: Does B7 bind [7]?
Answer: Result: no binding

B8: CV40 (antibody, V domains shown)
VH: QVQLVQSGAEVKKPGASVKVSCKASGYTFSSYGISWVRQDPGQGLEWMGWISAYNGNTNYAQKLQGRVTMTTDTSTSTAYMELRSLRSDDTAVYYCARVGLWWLGHPDAFDIWGQGTMVTVSS
VL: DIQMTQSPSSLSASVGDRVTITCRASQGIRNDLGWYQQKPGKAPKRLIYAASSLQSGVPSRFSGSGSGTEFTLTISSLQPEDFATYYCLQHNSYPLTFGGGTKVEIK
notes: expressed as IgG
Question: Does B8 bind [8]?
Answer: Result: no binding

B9: CV34 (antibody, V domains shown)
VH: QVQLVESGGGVVQPGRSLRLSCAASGFTFSSYAMHWVRQAPGKGLEWVAVISYDGSNKYYADSVKGRFTISRDNSKNTLYLQMNSLRAEDTAVYYCARSYGGSYYYGMDVWGQGTTVTVSS
VL: SYELTQPHSVSVATAQMARITCGGNNIGSKAVHWYQQKPGQDPVLVIYSDSNRPSGIPERFSGSNPGNTATLTISRIEAGDEADYYCQVWDSSSDHVVFGGGTKLTVL
notes: expressed as IgG
Question: Does B9 bind [9]?
Answer: Result: no binding

B10: CV41 (antibody, V domains shown)
VH: B9 VH with S99T, Y100K, Y105F, Y106A, G107P, M108F, V110Y, T116L
VL: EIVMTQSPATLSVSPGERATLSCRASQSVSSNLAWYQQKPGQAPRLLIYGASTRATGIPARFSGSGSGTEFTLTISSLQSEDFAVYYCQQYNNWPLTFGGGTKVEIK
notes: expressed as IgG
Question: Does B10 bind [10]?
Answer: Result: no binding
